{"source": "patent US5912120A", "about": "“Cloning, expression and diagnosis of human cytochrome P450 2C19: the principal determinant of s-mephenytoin metabolism” (The United States of America as represented by the …, priority 1994, dated 1999)", "molecules": {"B1": {"name": "2C9: recombinant human cytochrome P450 2C9, allele not specified in the text (protein, UniProt P11712 1-490, looked up)", "Cytochrome P450 2C9": "MDSLVVLVLCLSCLLLLSLWRQSSGRGKLPPGPTPLPVIGNILQIGIKDISKSLTNLSKVYGPVFTLYFGLKPIVVLHGYEAVKEALIDLGEEFSGRGIFPLAERANRGFGIVFSNGKKWKEIRRFSLMTLRNFGMGKRSIEDRVQEEARCLVEELRKTKASPCDPTFILGCAPCNVICSIIFHKRFDYKDQQFLNLMEKLNENIKILSSPWIQICNNFSPIIDYFPGTHNKLLKNVAFMKSYILEKVKEHQESMDMNNPQDFIDCFLMKMEKEKHNQPSEFTIESLENTAVDLFGAGTETTSTTLRYALLLLLKHPEVTAKVQEEIERVIGRNRSPCMQDRSHMPYTDAVVHEVQRYIDLLPTSLPHAVTCDIKFRNYLIPKGTTILISLTSVLHDNKEFPNPEMFDPHHFLDEGGNFKKSKYFMPFSAGKRICVGEALAGMELFLFLTSILQNFNLKSLVDPKNLDTTPVVNGFASVPPFYQLCFIPV"}, "B2": {"name": "2C18-Thr^385 (29c): recombinant human P450 2C18 allelic variant, clone 29c (Thr at 385), in yeast microsomes; residue 2 not stated in Table III (protein, UniProt P33260 26-490, looked up)", "Cytochrome P450 2C18": "RGRLPSGPTPLPIIGNILQLDVKDMSKSLTNFSKVYGPVFTVYFGLKPIVVLHGYEAVKEALIDHGEEFSGRGSFPVAEKVNKGLGILFSNGKRWKEIRRFCLMTLRNFGMGKRSIEDRVQEEARCLVEELRKTNASPCDPTFILGCAPCNVICSVIFHDRFDYKDQRFLNLMEKFNENLRILSSPWIQVCNNFPALIDYLPGSHNKIAENFAYIKSYVLERIKEHQESLDMNSARDFIDCFLIKMEQEKHNQQSEFTVESLIATVTDMFGAGTETTSTTLRYGLLLLLKYPEVTAKVQEEIECVVGRNRSPCMQDRSHMPYTDAVVHEIQRYIDLLPTNLPHAVTCDVKFKNYLIPKGTTIITSLTSVLHNDKEFPNPEMFDPGHFLDKSGNFKKSDYFMPFSAGKRMCMGEGLARMELFLFLTTILQNFNLKSQVDPKDIDITPIANAFGRVPPLYQLCFIPV"}, "B3": {"name": "2C18-Asp^2 Thr^385 (29c-1a): recombinant human P450 2C18, clone 29c with correct Asp^2, Thr^385 (protein, UniProt P33260 26-490, looked up)", "Cytochrome P450 2C18": "B2 Cytochrome P450 2C18"}, "B4": {"name": "2C8 Purified from Human Liver: cytochrome P450 2C8 purified from human liver microsomes (protein, UniProt P10632 1-490, looked up)", "Cytochrome P450 2C8": "MEPFVVLVLCLSFMLLFSLWRQSCRRRKLPPGPTPLPIIGNMLQIDVKDICKSFTNFSKVYGPVFTVYFGMNPIVVFHGYEAVKEALIDNGEEFSGRGNSPISQRITKGLGIISSNGKRWKEIRRFSLTTLRNFGMGKRSIEDRVQEEAHCLVEELRKTKASPCDPTFILGCAPCNVICSVVFQKRFDYKDQNFLTLMKRFNENFRILNSPWIQVCNNFPLLIDCFPGTHNKVLKNVALTRSYIREKVKEHQASLDVNNPRDFIDCFLIKMEQEKDNQKSEFNIENLVGTVADLFVAGTETTSTTLRYGLLLLLKHPEVTAKVQEEIDHVIGRHRSPCMQDRSHMPYTDAVVHEIQRYSDLVPTGVPHAVTTDTKFRNYLIPKGTTIMALLTSVLHDDKEFPNPNIFDPGHFLDKNGNFKKSDYFMPFSAGKRICAGEGLARMELFLFLTTILQNFNLKSVDDLKNLNTTAVTKGIVSLPPSYQICFIPV"}, "B5": {"name": "2C9 Purified from Human Liver: cytochrome P450 2C9 purified from human liver microsomes (protein, UniProt P11712 1-490, looked up)", "Cytochrome P450 2C9": "B1 Cytochrome P450 2C9"}, "B6": {"name": "2C18: recombinant human cytochrome P450 2C18, variant not specified in the text (protein, UniProt P33260 26-490, looked up)", "Cytochrome P450 2C18": "B2 Cytochrome P450 2C18"}}, "assay_type_in_all_cases": "biochemical", "key": {"[1]": {"assay": "Mephenytoin 4'-hydroxylase assay, purified recombinant P450 2C in reconstituted system (Table IV)", "settings": "for stereospecificity of 4'-hydroxylation of mephenytoin: purified, reconstituted system (Table IV)", "protocol": "Recombinant yeast microsomes were prepared from a 10-12 l culture, and recombinant P450s were purified by aminooctylsepharose chromatography as described by Iwasaki et al., J. Biol. Chem. 226:3380-3382 (1991). The Emulgen was then removed from protein by adsorption of the protein to a 4 g hydroxylapatite column (Hypatite C, Clarkson Chemical Company, Williamsport, Pa.) equilibrated with 10 mM potassium phosphate buffer (pH 7.2), 20% glycerol, 0.1 mM EDTA, and 0.1 mM DTT and washing the column with the same buffer until the absorbance at 280 nm returned to zero. The P450 was then eluted with […], and dialyzed overnight against 100 mM potassium phosphate buffer (pH 7.4, 20% glycerol and 0.1 mM EDTA. Absolute and CO difference spectra of purified P450s were determined in the same buffer but containing 0.2% Emulgen and 0.5% cholate.\nMephenytoin 4'-hydroxylase activity was measured by a modification of the radiometric HPLC assay described by Shimada et al., J. Biol. Chem. 261:909-921 (1986), as described below. Purified or recombinant yeast microsomes (10-50 pmol) were preincubated with dilauroylphosphatidylcholine (15 μg per 50 pmol P450), P450 reductase (500 U per […] P450), and human cytochrome b5 (2:1 molar ratio when added). The reconstituted mixture was preincubated for 5 min at 37° C., and then placed on ice. A final concentration of 0.4 mM radiolabelled S- or R-mephenytoin (20.7 mCi/mM and 20.9 mCi/mMol) was added to 50 mM HEPES buffer (pH 7.4) containing 0.1 mM EDTA and 1.5 mM MgCl2 for recombinant 2C proteins. The mixture was then incubated at 37° with shaking for 3 min, and the reaction started with the addition of 2mM NADPH and terminated after 30 min with an equal volume of methanol. Cytochrome b5 was not included in all CYP2C18 reactions, since it had no effect or produced a slight inhibition on the activity of this CYP protein. Reaction volumes were generally 0.25 ml except when the volume of recombinant purified cytochrome or yeast microsomes was greater than 50 μl. In these cases, the volume was increased to 0.5 ml to limit the volume of glycerol from the purified preparation to <4% of the final volume.\nAt the end of the incubation period, the reactions were terminated with an equal volume of methanol. The incubation mixture was centrifuged at 10,000 g for 10 min and an aliquot assayed directly using HPLC without extraction. Samples with particularly low activity were concentrated by lyophilization and redissolved in a small volume of methanol:water (1:1) before assay. The HPLC system consisted of a reverse phase C18 (10 μm) Versapak, 300 mm×4.1 mm column (Altech Associates, Deerfield, Ill.) using an isocratic solvent consisting of methanol:water (45:55) with a flow rate was kept of 1 ml/min for 25 min. Detection of radioactive peaks was accomplished using an on-line Flow-One radiochemical detector (Radiomatic Instruments Co., Tampa, Fla. Detection of the unlabeled 4'-hydroxymephenytoin authentic standard was performed using an on-line multiwavelength UV detector at both 211 and 230 nm.\nRecombinant P450s were purified from yeast microsomes and assays performe"}, "[2]": {"assay": "Mephenytoin 4'-hydroxylase assay, recombinant human CYP2C yeast microsomes (Table III)", "experimental": "(§1) Purified or recombinant yeast microsomes (10-50 pmol) were preincubated with dilauroylphosphatidylcholine (15 μg per 50 pmol P450), P450 reductase (500 U per 50 mol P450), and human cytochrome b5 (2:1 molar ratio when added). The reconstituted mixture was preincubated for 5 min at 37° C., and then placed on ice. A final concentration of 0.4 mM radiolabelled S- or R-mephenytoin (20.7 mCi/mM and 20.9 mCi/mMol) was added to 50 mM HEPES buffer (pH 7.4) containing 0.1 mM EDTA and 1.5 mM MgCl2 for recombinant 2C proteins. The mixture was then incubated at 37° with shaking for 3 min, and the reaction started with the addition of 2mM NADPH and terminated after 30 min with an equal volume of methanol. […] Reaction volumes were generally 0.25 ml except when the volume of recombinant purified cytochrome or yeast microsomes was greater than 50 μl. In these cases, the volume was increased to 0.5 ml to limit the volume of glycerol from the purified preparation to <4% of the final volume."}, "[3]": {"assay": "Mephenytoin 4'-hydroxylase assay, recombinant human CYP2C yeast microsomes (Table III)", "settings": "recombinant yeast microsomes + P450 reductase, phospholipid, cytochrome b5 2:1; 0.4 mM substrate, HEPES pH 7.4, 37° C. 30 min; means ± SE", "experimental": "as §1"}, "[4]": {"assay": "Tolbutamide hydroxylase assay, recombinant human CYP2C yeast microsomes (Table V)", "settings": "1 mg yeast microsomal protein + purified P450 reductase (1,000 units)", "experimental": "Tolbutamide hydroxylase activity was measured according to Knodell et al., J. Pharmacol. Exper. […] Yeast microsomes (1 mg protein) were preincubated with 300 pmol hamster P450 reductase in 0.2 ml of the incubation buffer (below) for 3 min at 37° C. The reaction was then placed on ice and incubated in 0.2 ml of 50 mM HEPES buffer (pH 7.4) containing 1.5 mM MgCl2, 0.1 mM EDTA in a final volume of 1 ml and 1 mM sodium tolbutamide. The reaction was initiated with 0.5 mM NADPH. Human liver microsomes (0.22 mg protein) were incubated without reductase. Incubations with reconstituted recombinant P450s contained 50 pmol purified P450 enzyme, 150 pmol P450 reductase, and 15 μg dilauroylphosphatidyl-choline, and were performed in 100 mM potassium phosphate buffer (pH 7.4). Reactions were terminated after 60 min at 37° C. by the addition of 50 μl of 4N HCl, followed by extraction with 3 ml of water-saturated ethyl acetate. The ethyl acetate extracts were dried under nitrogen at 40° C., the residue resolubilized in 200 μl methanol, and 4-hydroxytolbutamide then assayed using HPLC by injecting 50 μl of the solubilized extract onto a μBONDAPAK C18 column (4.6×300 mm) using 0.05% phosphoric acid, pH 2.6: acetonitrile (6:4, v/v) as the mobile phase with a flow rate of 1 ml/min. The column eluate was monitored at 230 nm and rates of product formation were determined from standard curves prepared by adding varying amounts of 4-hydroxytolbutamide to incubations conducted without NADPH. […] Samples were analyzed in triplicate."}, "[5]": {"settings": "purified P450, reconstituted system"}}, "data": [{"molecule": "B1", "values": [{"measurement": "turnover number higher than the activity of 2C9 purified from human liver", "setting": "[1]; S-mephenytoin 4'-hydroxylation", "result": "~ 100 times"}, {"measurement": "stereospecificity of 4'-hydroxylation of mephenytoin", "setting": "[1]", "result": "not stereospecific"}, {"measurement": "rate of 4'-hydroxylation of S-mephenytoin", "setting": "[2]; recombinant yeast microsomes", "result": 0.02, "unit": "nmol/min/nmol"}]}, {"molecule": "B2", "values": [{"measurement": "Mephenytoin 4'-Hydroxylase Activity R", "setting": "[3]", "result": "0.054 ± 0.003", "unit": "nmol/min/nmol P450"}, {"measurement": "Mephenytoin 4'-Hydroxylase Activity S", "setting": "[2]; recombinant yeast microsomes + P450 reductase, phospholipid, cytochrome b5 2:1, 0.4 mM substrate, HEPES pH 7.4, 37° C. 30 min, means ± SE", "result": "0.042 ± 0.004", "unit": "nmol/min/nmol P450"}, {"measurement": "Mephenytoin 4'-Hydroxylase Activity S", "setting": "[2]; recombinant yeast microsomes, no b5", "result": "0.034 ± 0.008", "unit": "nmol/min/nmol P450"}, {"measurement": "R/S Ratio", "setting": "[2]; recombinant yeast microsomes, with cytochrome b5", "result": 1.3}]}, {"molecule": "B3", "values": [{"measurement": "R/S Ratio", "setting": "[1]; [5]", "result": 1.3}, {"measurement": "Mephenytoin 4'-Hydroxylase Activity S", "setting": "[1]; purified P450, reconstituted system, triplicate, means ± SE, blank not subtracted", "result": "0.116 ± 0.010", "unit": "nmol/min/nmol P450"}, {"measurement": "Mephenytoin 4'-Hydroxylase Activity R", "setting": "[1]; triplicate, means ± SE, blank not subtracted", "result": "0.147 ± 0.025", "unit": "nmol/min/nmol P450"}, {"measurement": "Tolbutamide Hydroxylase Activity (nmol/min/nmol P450)", "setting": "[4]; adjusted for P450 content", "result": "0.19 ± 0.02", "unit": "nmol/min/nmol P450"}, {"measurement": "Tolbutamide Hydroxylase Activity (nmol/min/mg protein)", "setting": "[4]; means ±SE", "result": "9.3 ± 0.7", "unit": "nmol/min/mg protein"}]}, {"molecule": "B4", "values": [{"measurement": "R/S Ratio", "setting": "[1]; [5]", "result": 1.6}]}, {"molecule": "B5", "values": [{"measurement": "R/S Ratio", "setting": "[1]; [5]", "result": 1.6}]}, {"molecule": "B6", "values": [{"measurement": "stereospecificity of 4'-hydroxylation of mephenytoin", "setting": "[1]", "result": "stereoselective for the R-enantiomer"}]}]}
